Reference: the RNAGym collection of RNA variant scans (doi:10.1073/pnas.2313332121)

B1: TPR t1 (parent)
chain: GACCAAUCUGCCCUCAGAGCUCGAGAACAUCUUCGGAUGCAGAGGAGGCAGGCUUCGGUGGCGCGAUAGCGCCAACGUCCUCAACCUCCAAUGCAUCCCACCACAUGAUGAUGCCUGAAGAGCCUUGGUUUUUUG

Variants of: B1
Assay: polymerase ribozyme fitness, log enrichment relative to wild type (log ratio); higher = more active; in vitro selection for triplet polymerase activity
Procedure, shortened: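 Fitness compares each genotype's enrichment to that of the wild type on a logarithmic scale, averaging replicates with inverse-variance weights. The logarithm is base 2. Enrichment came from Illumina sequencing of input and output libraries after one triplicate round of in vitro selection, which included frozen incubation at −7 °C, of PCR-built, transcribed mutant libraries of each subunit of a heterodimeric triplet polymerase ribozyme. Only genotypes with ≥10 input reads and ≥1 read per output were kept.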

Row | Variant | polymerase ribozyme fitness (log ratio)
1 | U7G C12A C101G U116C | -2.39
2 | U7G C70U | -0.201
3 | U7C U14G A74C | -1.29
4 | U7A U9A C20U U38A G47U C56A G60U C72G C114A A121U C123U | -4.89
5 | U7A C12G A27C G122A U130C | -2.81
6 | U7G A68U | -6.53
7 | U7C A27G C62U G63A | -2.76
8 | U7C A27G G63A | -1.53
9 | U7A C94U A95U C123U G127U | -1.38
10 | U7A G35A G71A G77C C124A | -5.19
11 | U7A G39A A50U C53G U130C | -4.47
12 | U7A G10U G93A | -0.792
13 | U7A C22U G39A G44U C53U C56G G63C C124A U125A | -5.65
14 | U7A A74G C85G | -1.49
15 | U7G C11U C97U | 0.101
16 | U7C C8G G17U C40A C89G A91C U126G | -4.01
17 | U7A U38C A41C G44U | -3.32
18 | U7C G69A C88A | -2.92
19 | U7G A18G C20A A43G C72G | -5.03
20 | U7A U9G C70U C73U C79G A84G U96C | -4.92
21 | U7C C11A C98A | -6.8
22 | U7A C11G A37U G60U G93C | -0.83
23 | U7A U9C U78A G110U | -1.82
24 | U7A C15A C101A U112A | 0.0193

Row | Variant | polymerase ribozyme fitness (log ratio)
25 | U7C G44U | -0.497
26 | U7G C11U G69C C88A | -1.91
27 | U7A G69U C80U C99U C124G | 0.126
28 | U7A U92A A103C | -5.64
29 | A6U U109C C124A | -5.26
30 | U7C U32C U106A G113U | -3.53
31 | U7A C28G | -2.71
32 | U7C C40A U109A U129A | -6.42
33 | U7A G36U G45U C86U | -3.34
34 | U7C U14G G48U | -2.35
35 | U7C C64U A100U | -0.384
36 | U7G C15A A16G C53A C64U | -1.35
37 | U7C C8G C64G C85A U112G | -6.03
38 | U7C G17C A121G | -1.82
39 | U7A A26U | -2.56
40 | U7A C124A | 2.16
41 | U7A C8A C11G G47U G57U C85A | -2.04
42 | U7C A18G G117C | -4.72
43 | U7C C101A | -0.57
44 | U7C C101G | -1.98
45 | U7A U106G G128C | -4.39
46 | U7G C28A G57U G110C | -1.2
47 | U7C A91U G117U | -2.74
48 | U7A A37U C70G U78A | -3.04

Row | Variant | polymerase ribozyme fitness (log ratio)
49 | U7A U55A U87C | 0.229
50 | U7A G45A C49G G71A C80U A84U C104U | -4.66
51 | U7G A26G C34U G113A | -4.39
52 | U7C G23U A29G G60U G117A G128U | -6.24
53 | U7A C49U C53U U59A C70U C76A | -2.44
54 | U7G C12U A37G A43G G61A A91C | -0.427
55 | U7C C53U G71A U92G C114U | -2.79
56 | U7C G42C C72A C88U C115U | -1.49
57 | U7C C34A | -2.72
58 | U7G C8G G44A G120A C124A | 1.06
59 | A6U U129A | -1.16
60 | U7A C86G | -0.205
61 | U7C A27G G69C | -2.37
62 | U7A C53A | -0.0334
63 | U7C C34A G35U C56U C94A G110C | -7.29
64 | U7A U92A | -2.1
65 | U7C C12U U106A C115U G127U | -1.03
66 | U7G C8U C15U G17A A50G | -3.01
67 | U7A C72U A91C G122U | -2.12
68 | U7C G10C G60C C102U U112C | -2.68
69 | U7A G10C C72U | -0.8
70 | U7C C11G A27U G35U G45A U59C A84G C101U A121U | -8.13
71 | U7C A18C | -1.7
72 | U7C C15A A46U G48U U130C | -2.63

Row | Variant | polymerase ribozyme fitness (log ratio)
73 | U7C G71U U112A U133A | 1.1
74 | U7C C8G U21C C62G U78A | -1.85
75 | U7G A118G | 0.686
76 | U7A A18G C20A G39A C70U U116C G120U C123U C124A | -6.7
77 | U7A A84C U116C | -0.218
78 | U7A G39U G69U | 0.59
79 | U7A G39U G69A | -3.24
80 | U7G C22G G47C G60U A84U | -5.01
81 | U7A C11G U55A | 0.0928
82 | A6U U106C G107A C114U | -5.44
83 | U7G C53G | -0.551
84 | U7A G36A A43U U54A C101U U112A | -6.85
85 | U7C A27G A46U G48U U59G G60U | -3.46
86 | U7G A74U A118U | 0.595
87 | U7G C13G C40U | 0.145
88 | U7A C34A C53A | -2.31
89 | U7C U14A C22U G47U C56G G60A G120U | -7.5
90 | U7A C11U A27U A90C C98U | -7.09
91 | U7G C8U G61A A90U A121C | 0.312
92 | U7A A27U A50U A74C C101U | -4.66
93 | U7C C8U A46U C56G G128U | -3.61
94 | U7A G47A U96A | -1.96
95 | U7G A50G | 0.715
96 | U7A C11A | -0.042

Row | Variant | polymerase ribozyme fitness (log ratio)
97 | U7A A16C | -0.994
98 | U7C A74G C79A G93A U106C G117U U129C U130C | -5.05
99 | U7C C11G G65C A83U G120C A121U | -6.35
100 | U7G C40U G69C C99U | -4.48
101 | U7G C31U | -3.68
102 | U7A C64U | -0.637
103 | U7G A74G | -0.0909
104 | U7C G61A U87G | 0.298
105 | U7G A37U G47U U67G C70U | -7.04
106 | U7A G47C | -1.26
107 | U7A G47A | -0.612
108 | U7C C22U C64U C88U C123U | -2.65
109 | U7G C12U C20A C72U | -1.43
110 | U7A C13U C22G A103C U130C | -4.17
111 | U7A A29G A83C | -0.648
112 | U7C G17U G35C U96A C97U U112A | -6.44
113 | U7G C12G C49A G69U | 1.21
114 | U7C A46U C76G | -0.0822
115 | U7A U21C C114A | -0.182
116 | U7A G48U C94G U116C G120A | -2.95
117 | U7G C20A G39A C49G A121G | -2.45
118 | U7A G17U C62U A111C G135U | -4.01
119 | U7A C8G G45A | 0.548
120 | U7G A16G A18C G117U | -0.355

Row | Variant | polymerase ribozyme fitness (log ratio)
121 | U7A C70A G71A | -2.52
122 | U7G C70U A83U U131A | 0.0577
123 | U7G A29G C89A C115A G122A | -1.64
124 | U7A C12U A46U G58A | -0.311
125 | U7A A41G | 0.181
126 | U7A C8A C40U C79G C102U G113C U129G U130A | -7.42
127 | U7G C64U | 0.622
128 | U7G A41U U59G C73U A121C | 0.0183
129 | U7A G44C C70G | -3.95
130 | U7C G135U | -0.566
131 | U7A C12U U59C | 0.392
132 | U7A A50U C82U A111C | -1.72
133 | U7C A27U G36C G57A A74U | -4.85
134 | U7A A66G C73G C124A | 0.101
135 | U7C U78C C85A C124G | -0.586
136 | U7C C85G | -1.66
137 | U7C C8G G61A C79A G110A | -2.75
138 | U7C A90C G93A G117U U132A | -4.79
139 | U7C U116C | 0.603
140 | U7C G58A C70U U78C U116C U131G | -1.13
141 | U7G C49A C70U C85G U130A | -2.22
142 | U7A G60A C64U C124A U133C | -1.69
143 | U7A C40U G110A | -1.33
144 | U7A C72U | -0.218

Row | Variant | polymerase ribozyme fitness (log ratio)
145 | U7G C40G A50U | -0.282
146 | U7G C49A | 0.309
147 | U7A C64A A95C C101A C123U | -6.03
148 | U7G A41C C114G | -0.902
149 | U7A C56U | 0.211
150 | U7A C53U A74C | 0.916
151 | U7G A50U G117C | -3.6
152 | U7G C70A U87A A121G | 1.36
153 | U7A G48C | -0.566
154 | U7A C80U C99U C124G | -2.39
155 | U7A C86G A90C | -1.43
156 | A6U U92A | -2.82
157 | U7C G17A A84U | -2.39
158 | U7G A18G U38G A50C C53U G113U | -2.37
159 | U7C C8G G45A C53U G63A U87A | -1.06
160 | U7C G61C | -1.87
161 | U7C A74C C98U U112A | -2.74
162 | U7A U112A | 1.69
163 | U7A A16C G63A A121U | -0.146
164 | U7A U116G | -1.35
165 | U7A G60A U81A | -0.716
166 | U7G C20U C115U | -2.32
167 | A6U U112A | 0.759
